{"source": "patent US20250369024A1", "about": "“Acyloin Condensation Reactions, Enzymes, and Products Thereof” (Mojia Biotech Pte. Ltd., priority 2023, published 2025)", "type_in_all_cases": "cell-based, E. coli", "key": {"[1]": {"system": "Methional", "assay": "HACS screening, methional-C1 condensation (resting cells), desmeninol", "settings": "20 mM methional and 20 mM formate, 3 hours", "text": "(§1) To implement the C1 elongation pathway for leucic acid production in vivo, we engineered vectors to independently control expression of various HACS candidates and the acyl-CoA transferase from Clostridium aminobutyricum (CaAbfT), with HACS under control of the IPTG-inducible T7 promoter in pCDFDuet-1 and CaAbfT under control of a cumate-inducible T5 promoter in pETDuet-1. As a host for these vectors, we used an engineered strain of E. coli based on MG1655(DE3) with knockouts for formaldehyde (ΔfrmA) and formate (ΔfdhF ΔfdnG ΔfdoG) oxidation as well as for glycolate utilization (ΔglcD).\n(§2) In vivo product synthesis was conducted using M9 minimal media (6.78 g/L Na2HPO4, 3 g/L KH2PO4, 1 g/L NH4Cl, 0.5 g/L NaCl, 2 mM MgSO4, 100 μM CaCl2), and 15 μM thiamine-HCl) unless otherwise stated. Cells were initially grown in 96-deep well plates (USA Scientific, Ocala, FL) containing 0.5 mL of the above media further supplemented with 20 g/L glycerol, 10 g/L tryptone, and 5 g/L yeast extract. […]\n(§3) Cells from the above pre-cultures were then centrifuged (4000 rpm, 22° C.), washed with the above minimal media without any carbon source, and resuspended with 1 mL of above minimal media containing indicated amounts of carbon source. […] After incubation at 30° C. for 3 hours, the cells were pelleted by centrifugation and the media was analyzed using HPLC."}, "[2]": {"system": "Acetaldehyde", "assay": "HACS screening, acetaldehyde-C1 condensation (resting cells), lactic acid", "settings": "20 mM acetaldehyde and 20 mM formate, 3 hours", "text": "as §1, with “lactic” for “leucic”\nas §2, §3"}, "[3]": {"system": "glyoxylic acid", "assay": "HACS screening, glyoxylic acid-C1 condensation (resting cells), tartronic acid", "settings": "5 mM glyoxylic acid and 20 mM formate; 1 hour", "text": "as §1, with “tartronic” for “leucic”\nas §2, with “containing 0.2” for “containing 0.5”\nas §3, with “1 hour,” for “3 hours,”"}, "[4]": {"system": "Succinic semialdehyde", "assay": "HACS screening, succinic semialdehyde-C1 condensation (resting cells), 2-hydroxyglutaric acid", "settings": "20 mM succinic semialdehyde and 20 mM formate, 3 hours", "text": "as §1, with “2-hydroxyglutaric” for “leucic”\nas §2, §3"}}}
{"molecule": "RuHACL: Engineered 2-hydroxyphytanoyl-CoA lyase [Rhodospirillales bacterium URHD0017], SEQ ID NO: 1 (protein, Rhodospirillales bacterium URHD0017 engineered 2-hydroxyphytanoyl-CoA lyase) MSEVDGATLIARSLKQQGIDHLFGVVGFPITAIAAAAQKEGVAYLGMRNEQSAAYAAAAYGYLTGRPGAAVVVTGPGVVHGLSGLANAQQNCWPMILIGGASETYRGGMGAFQEERQVLIASPFCKFAHGIESVARIPFYVEMATRNAIYGRPGATYLDMPDDIIRGTCETDKIAQAERVPEAPRSVAPAENVEAALDLLEKAQRPLVLLGKGMAWSRGEDEVRAFIERTQVPFVRSPMGKGVMPDDHPLSASAARTLALQQADVIFLMGARLNWIFHFGLPPRYAKDVKVIQLDIAPEEIGHNKPTEVALVGDGKAIMAQLNKALVNRQWFHPKDTPWRQALTKKAAENVATIKPQVDDDQGPAGYYRALRDVAAWMPKNAILSAEGANTMDIGLTQLASSNARSVLNAGTYGTMGVGLGQAIAAAVSDPSRPVIHLSGDSAIGFSGMEMETLVRYNLPVKIVVLNNGGIGPGMPEIPENPMFNLKPNALIYGARYDKVMEAFGGKGIFVKEPKDIRKALDEAMAFKGPALVNVVLSQGSTRKAQQFAWHS", "values": [{"measurement": "Product flux, substrate Methional, product Desmeninol", "setting": "[1]", "value": 20.0, "unit": "μM/OD/h"}, {"measurement": "Product flux, substrate Acetaldehyde, product Lactate", "setting": "[2]", "value": 78.1, "unit": "μM/OD/h"}, {"measurement": "tartronic acid productivity of best candidate", "setting": "[3]", "value": "up to 13 μM/hr per OD600"}, {"measurement": "Product flux, substrate Succinic semialdehyde, product 2-hydroxyglutarate", "setting": "[4]", "value": 15.2, "unit": "μM/OD/h"}]}
